Measurements: patent US20210032351A1 (XDCEXPLORER SHANGHAI, published 2021)

B1: Murine anti-43H6 (antibody, V domains shown)
VH: INAEYAGGPGLVKPSQSLSLTCTVTDYSITSDYAWNWIRQFPGNKLEWMGYISYSGNTNYNPSLKSRISITRDTSKNQFFLQLNSVTTEDTATYYCARLGRGFAYWGQGTLVTVSA
VL: DILMTQSPSSMSVSLGDTVSITCHASQDINSNIGWLQQKPGTSFKGLIYHGRNLEDGVPSRFSGSGSGEDYSLTISSLESEDFADYYCVQYAHFPPTFGAGTKLELK
notes: Mouse hybridoma antibody; also called 43H6A1
B2: Murine anti-46C4-MMAF (antibody, V domains shown)
VH: EVHLQQSVAELVRPGASVKLSCTASGFNIKNTYMHWVKQRPEQGLEWIGRIDPANGNTKYAPKFQGKATITADTSSNTAYLQLSSLTSEDTAIYYCASDFDYWGQGTTLTVSS
VL: DVLMTQTPLSLPVSLGDQVSISCRSSQSIVNSNGNTHLEWYLQKPGQSPKVLIYKVSKRFSGVPDRFSGSGSGTDFTLKISRVEAEDLGVYYCFQGSHVPYTFGGGTKLEIK
B3: Murine anti-75G7-MMAF (antibody, V domains shown)
VH: EVQLQQSGPELVKPGASVKIPCKASGYTFTDYNMDWVKQSHGKSLEWIGDINPNNGDTIYNQKFKGKATLTVDKSSSTAYMELRSLTSEDTAVYYCARGDYDGYYPVYYAMDYWGQGTSVTVSS
VL: ENVLTQSPAIMSASPGEKVTMTCRASSSVSSSYLHWYQQKSGASPKLWIFSTSNLAAGVPARFSGSGSGTSYSLTVSSVEAEDAATYYCQQYSGYPLTFGAGTKLELK
B4: Murine anti-63A10-MMAF (antibody, V domains shown)
VH: QVQLQQSGAELARPGASVKMSCKASGYTFISFTMHWVKQRPGQGLEWIGYINPNSGYTKYNQKFKDKATLTAGQSSSTAYMQLSSLTSEDSAVYYCTRGGGRGFAYWGQGTLVTVSA
VL: DILMTQSPSSMSVSLGDTVTITCHASQDINSNIGWLQQKPGKSFKALIYHGTNLEDGVPSRFSGSGSGADYSLTISSLESEDFADYYCVQYAQFPFTFGSGTKLEIK
B5: Murine anti-53D8-MMAF (antibody, V domains shown)
VH: QVQLQQSGAELARPGASVKMSCKASGYTFTSYTMHWVKQRPGQGLEWIGYINPSSGYTKYNQIFKDKATLTADKSSSTAYMQLSSLTSEDSAVYYCTRGGGRGFAYWGQGTLVTVSA
VL: DILMTQSPSSMSVSLGDTVSITCHASQDINSNIGWLQQKPGKSFKGLIYHGTNLEDGVPSRFSGSGSGADYSLTISSLESEDFADYYCVQYAQFPFTFGSGTKLEIK
B6: Murine anti-43H6-MMAF (antibody, V domains shown)
VH: INAEYAGGPGLVKPSQSLSLTCTVTDYSITSDYAWNWIRQFPGNKLEWMGYISYSGNTNYNPSLKSRISITRDTSKNQFFLQLNSVTTEDTATYYCARLGRGFAYWGQGTLVTVSA
VL: DILMTQSPSSMSVSLGDTVSITCHASQDINSNIGWLQQKPGTSFKGLIYHGRNLEDGVPSRFSGSGSGEDYSLTISSLESEDFADYYCVQYAHFPPTFGAGTKLELK
B7: Murine anti-64B11-MMAF (antibody, V domains shown)
VH: EVQLQQSGAELVKPGASVKLSCTASGFNIKDYYMHWVKQRTEQGLEWIGRIDPEDGETKYAPKFQGKATITADTSSNTAYLQLSNLPSEDTAVYYCGCRTGGFAYWGQGTLVTVSA
VL: DILMTQSPSSMSVSLGDTVSITCHASQGINSNIGWLQQKPGKSFKALIYHGTNLEDGVPSRFSGSGSGADYSLTISSLESEDFADYYCVQYAQFPFTFGSGTELEIK
B8: Murine anti-64F1-MMAF (antibody, V domains shown)
VH: QVQLQQSGAELARPGASVKMSCKASGYTFSSYTMHWAKQRPGQGLEWIGYINPSSGYTKYNQKFKDKATLTADKSSSTAYMQLSSLTSEDSIVYYCARGGGRGFAYWGQGTLVTVSA
VL: QIVLTQSPAIMSASPGERVTMTCSASSSVSYMYWYQQKPGSSPRLLIYDTSNLASGVPVRFSGSGSGTSYSLTISRVEAEDAATYYCQQWSSYSLTFGAGTKLELK
B9: Murine anti-7E5-MMAF (antibody, V domains shown)
VH: EIQLQQSGPELVKPGASVKVSCKASGYSFTDYNMYWVKQSHGKSLEWIGYVDPSNGGTNYNQKFKGKATLTVDKSSSTAFMHLNSLTSEDSAVYYCARGFFDYWGQGTTLTVSS
VL: DIVMTQSPSSLTVTAGEKVTMSCKSSQSLLNSGNQKNYLTWYQQKPGQPPKLLIYWASNRESGVPDRFTGSGSGKDFTLTISSVQAEDLAVYYCQNDYRYPVTFGAGTKLELK
B10: Murine anti-49G12-MMAF (antibody, V domains shown)
VH: EVQLLQSGAELVKPGASVKLSCTASGFNIKDYYMHWVKQRTEQGLEWIGRIDPEDGETKYAPKFQGKATMTADTSSNTAYLQLSSLTSEDTAVYYCASSAYYGRNYWGQGTTLTVSS
VL: QIVLTQSPAIMSASPGEKVTLTCSASSSLSSSYLYWYQQKPGSSPKLWIYSTSNLASGVPARFSGSGSGTSYSLTISSMEAEDAASYFCHQWSSYPYTFGGGTKLEIK
B11: Murine anti-56F10-MMAF (antibody, V domains shown)
VH: EVQLQQSGAELVKPGASVKLSCTASGFNIKDFYMHWVKQRTEQGLEWIGRIDPEDGETKYAPKFQGKATITADTSSNTAYLQLSSLTSEDTAVYYCGCRTGGFAYWGQGTLVTVSA
VL: QIVLTQSPAIMSASPGEKVTMTCSASSSVSYLYWYQQKPGSSPSLLIYDTSNLASGVPVRFSGSGSGTSYSLTISRMEAEDAATYYCQQWSRNPWTFGGGTKLEIK
B12: Murine anti-59G3-MMAF (antibody, V domains shown)
VH: DVQLQESGPGLVKPSQSLSLTCSVTGYSITSGYYWHWIRQFPENKLEWMGYISYDGSNIYNPSLKNRISITRDTSKNQFFLKLNSVTTEDTATYYCAINSDYALDYWGQGTSVTVSS
VL: QIVLTQSPAIMSASPGEKVTMTCSASSSVSYMYWYQQKPGSSPRLLIYDTSNLASGVPVRFSGSGSGTSYSLTISRMEAEDAATYYCQQWSSYSLTFGAGTKLELK
B13: Chimeric antibody c75G7C6 (antibody, human IgG1, V domains shown)
VH: EVQLQQSGPELVKPGASVKIPCKASGYTFTDYNMDWVKQSHGKSLEWIGDINPNNGDTIYNQKFKGKATLTVDKSSSTAYMELRSLTSEDTAVYYCARGDYDGYYPVYYAMDYWGQGTSVTVSS
VL: ENVLTQSPAIMSASPGEKVTMTCRASSSVSSSYLHWYQQKSGASPKLWIFSTSNLAAGVPARFSGSGSGTSYSLTVSSVEAEDAATYYCQQYSGYPLTFGAGTKLELK
notes: also called chimeric antibody 75G7
B14: Humanized antibody h75G7C6-9 (antibody, human IgG1, V domains shown)
VH: QVQLVQSGAEVKKPGASVKVSCKASGYTFTDYNMDWVRQAPGQGLEWIGDINPNNADTIYNQKFKGRVTLTVDTSTSTVYMELSSLRSEDTAVYYCARGDYDGYYPVYYAMDYWGQGTTVTVSS
VL: EIVLTQSPATLSLSPGERATLSCRASSSVSSSYLHWYQQKPGQAPRLLIYSTSNLAAGIPARFSGSGSGTDFTLTISSLEPEDFAVYYCQQYSGYPLTFGGGTKVEIK
notes: Human IgG1 constant region, human kappa constant region
B15: Humanized antibody h75G7C6-13 (antibody, human IgG1, V domains shown)
VH: QVQLVQSGAEVKKPGASVKVSCKASGYTFTDYNMDWVKQAPGQGLEWIGDINPNNADTIYNQKFKGRVTLTVDKSTSTVYMELSSLRSEDTAVYYCARGDYDGYYPVYYAMDYWGQGTTVTVSS
VL: EIVLTQSPATLSLSPGERATLSCRASSSVSSSYLHWYQQKPGQAPRLLIYSTSNLAAGIPARFSGSGSGTDFTLTISSLEPEDFAVYYCQQYSGYPLTFGGGTKVEIK
notes: as for B14

target: T1, human EGFRvIII protein on the surface of U87MG-hEGFRvIII cells (human, UniProt P00533 25-1210); test: FACS on U87MG-hEGFRvIII cells
T1 construct: whole, on cells; Stably transfected U87MG cells; also called mutant EGFRvIII protein; U87MG-EGFRvIII
Experimental: The cells are washed twice with the HBSS buffer and are counted, and then the cells are diluted with the HBSS buffer to 2×10⁶ cells/ml, added with 1% goat serum blocking solution, with the percentage being the mass percentage, and incubated on ice for 30 minutes, and then centrifugally washed twice with the HBSS buffer. The collected cells are suspended to 2×10⁶ cells/mL with an FACS buffer (HBSS+1% BSA, with the percentage being the mass percentage), added to a 96-well FACS reaction plate at 100 μL/well, then added with 100 μL/well of the purified EGFRvIII antibody (samples to be tested) obtained in example 2, and incubated on ice for 2 hours. The plate is centrifugally washed twice with the FACS buffer, added with 100 μL/well of a fluorescence (Alexa 488) labeled secondary antibody (purchased from Invitrogen), and then incubated on ice for 1 hour. The plate is centrifugally washed 3 times with the FACS buffer, added with 100 μL/well of a fixing solution [4% (v/v) paraformaldehyde] for suspending the cells, and centrifugally washed twice with the FACS buffer after 10 minutes. The cells are suspended in 100 μL of the FACS buffer, and the results are detected and analyzed by FACS (FACS Calibur, purchased from BD). Data analysis is performed by using the software (CellQuest) to obtain the mean fluorescence intensity (MFI) of the cells. Data is further analyzed by using the software (GraphPad Prism5) to perform data fitting and calculate EC50. […] A431 cells (human epidermal cell cancer cell lines) have a large amount of wild-type EGFR protein expressed on the surface thereof. […] U87MG cells (human glioma cell lines) have a small amount of wild-type EGFR protein expressed on the surface thereof, while HEB cells (human glioma cell lines) have a high level of wild-type EGFR protein expression on the surface thereof.

B1 gave an EC50 of 4000 pM.

target: T1, human EGFRvIII protein on the surface …; test: cell-based or functional assay

First: B2
Second: B3
The “IC50, cell killing of U87MG-hEGFRvIII cells (CellTiter-Glo)” value (shortened to “IC50, cell killing”) of the first is 1.8-fold lower: 150 pM for the first, 270 pM for the second.

Compared with B4, B5 is 4-fold higher in “IC50, cell killing” value: 10 pM for the first, 40 pM for the second.

Going from B6 to B7, the “IC50, cell killing” value rises from 10 pM to 40 pM (4-fold).

Going from B8 to B9, the “IC50, cell killing” value rises from 10 pM to 20 pM (2-fold).

First: B10
Second: B11
The “IC50, cell killing” value of the first is 7.5-fold lower: 20 pM for the first, 150 pM for the second.

B12 was tested, and the “IC50, cell killing” value was 60 pM.

target: T2, EGFRvIII-his (purchased from Sino Biological) (UniProt P00533 25-645); test: BLI (OctetRED), antibody on anti-human Fc (AHC) biosensor, EGFRvIII-his in solution
T2 construct: Bought protein; also called EGFRvIII protein; not shown: his tag
From the text: (§1) BLI technology involves: detecting the interaction of the molecules fixed on the sensor with the molecules in the solution, which results in that the biofilm thickness is increased, and the interference spectrum curve is shifted along the direction of increased wavelength, wherein the phase shift of light waves can be detected by workstation in real time, and analyzed to quantitatively obtain the changes in the number of molecules on the sensor surface and related concentration and kinetic data.

B13 and B14 are within 1.5-fold of each other in Kd: 1450 pM for the first, 1770 pM for the second.

B15 was tested, and the Kd was 1450 pM.

B13 and B14 are within 1.5-fold of each other in koff: 0.000132 s⁻¹ for the first, 0.000175 s⁻¹ for the second.

With B15 the koff was 0.000181 s⁻¹.

B13 and B14 are within 1.5-fold of each other in kon: 91400 M⁻¹ s⁻¹ for the first, 98900 M⁻¹ s⁻¹ for the second.

Work on B15 yielded a kon of 125000 M⁻¹ s⁻¹.

target: T3, EGFR-his (purchased from Sino Biological) (UniProt P00533 25-645); test: BLI (OctetRED), antibody on anti-human Fc (AHC) biosensor, EGFR-his in solution
T3 construct: Bought protein; also called EGFR protein; not shown: his tag
From the text: as §1

B13 and B14 are within 1.5-fold of each other in Kd: 220000 pM for the first, 215000 pM for the second.

B15 showed a Kd of 211000 pM.

B13 and B14 are within 1.5-fold of each other in koff: 0.00362 s⁻¹ for the first, 0.00435 s⁻¹ for the second.

B15 showed a koff of 0.00476 s⁻¹.

B13 and B14 are within 1.5-fold of each other in kon: 16500 M⁻¹ s⁻¹ for the first, 20200 M⁻¹ s⁻¹ for the second.

In the case of B15, the kon is reported as 22500 M⁻¹ s⁻¹.
